B1: Jingmen picorna-like virus (nucleic acid)
DNA: TGTGTTTTTGTCAAGATAATTGTTCTGTGATTAACAGTGATTGTGGTTCGTGTAATGCGACGCAGTCAAATGCTAGTTTTGATGAAGTGTATGAGAGAGTGGAAAACTTATCTCATAAGAAGATTGAAGAGTGTGTAGATCAGGCTATTGATCGAGCTTCTAAGCTTCGTGATTACAAGCTTAATGTTCACAATGGCTCCCGACGGGAATCATCTGATCCTCTCTTTATTTCGCCCCATTCGTTGTTATCGCTTGGGGTATCTAAGTTTGTTGCGTTTGAGCAGCATCACAGTTTCGCTTCAGTTGAGTCTCTGAAGTTGCTTGCTCTGTCT
B2: Miniopterus schreibersii picornavirus 1 (nucleic acid)
DNA: GTTGTCGACCCGTTGCTTGGTTTAAGCATGAGGTGGATTCCCCCGATTATGTCTACCCGTTACTATGGCGGGCGGTCGTTTCAGGGTGTTTCTACTGAGGACTGCACCAAGTCTTTATCTTTTATTCTCAGATCTCCGGCTGTTTGACGCTTGTAGGACAGCAGGACTATTTTCTCTTAATCTTTTTCTACCCACTAGGGTCCTATCCTAGTGGAGGGAGGGTGCCACCCCTTCTCTCTTTAGAGAGTGCGCCTGGCGGTCTTTCCGTCTCTGGAAAAAGGAGCACATGGCATGCTACAATTGGCACAAGAAAACAAGCTTTGCGGATTCTTTCTTTGTACTAGAGGAAGCTGTAGCGACCCTGTATGGCGAGCGGACTCCCCTCTCGGCGACGAGAGCCTCTCGGGCCAAAAGCCAAGTGTTAATAGCACCCATACAGGCGGCAGTACCCCACTGCCCTTTCTCAACATACAATGACTGATGAACCACTGTTGGTTTTTCTGACACCTTTGTAGTAGGATTCCAAGGAATGTCCTGAAGGTACCCTGTTAGCTTACGCGCAGGATCTGATCAGGAGTCTCTTTACAGTGCTGTACACTGTGCAAGGGATTAAAAATTGTTTGAGGAATCCCCGAGATAGTGGTCTATCTCTTCCTATTTTGTTTTACAGACACG
B3: Harrier picornavirus 1 (nucleic acid)
DNA: GATGTGTGACGGTGTAATTACTTTCCGGATCCCACTTTCCTATTATAACTCTTTCATCCCAAGGTTAGGGAAAGAACCTGGCTCGGTACCACCAGACCCTCCGCCACGCTAGTGGACTCTCCGGAGATAACGGTACCCCCTTTGTAGTCACCTGTGCTGGTGAAGAACCACCTAGTATTGCTTGGGTGCGTGCCGCCTAGCTTCCATTTCTTCTGGAGCACTGTGCAATGAGGTTTCCCCACTTGGTAACAAGTGCCTCAGGTCCCGCAAGGATACTGTGGGGTGGTGTGACCGCAGGGAGCTGTCTCCACGGCTCCTCTAATGTTACGCCGCTATCCACAGGCCAGTGCGTGTCATCGATCCCGGATGACAGAGCTAGTATTGCGAACCCCCAAGTAAGAAAAGTGGCTAGTAACCTGATAGCTGGTGAAGAGGGTGGGTCAGTTGAGTAGATGCCCTAGAGGTACCCGAAAGGATCTGACTAGGGACCCGTGACTATACATTAGGTAAACCGGGTATAAAAACCATGAAAAACTGACCACTTTTCTTTTAACCTCTTCTTTCTTTTTATGTGTGTTAAGTGTTTTGAGTTTGGACTGTACCTTGCCCGCCTTTCTTGGATTTTCTCTATCGCTCTTCTTACACCTACTGTTATCAAGGCACTCTTTAGAGATA
B4: Mumps virus (nucleic acid, listed as Mumps orthorubulavirus)
DNA: ACCAAGGGGAAAATGAAGATGGGATGTTGGTAGAACAAATAGTGTAAGAAACAGTAAGCCCGGAAGTGGTGTTTTGCGATTTCGAGGCCGGGCTCGATCCTCACCTTTCATTGTCGATAGGGGACATTTTGACACTACCTGGAAA
B5: Megirivirus C (nucleic acid)
DNA: TTCCCGACCGGTCTGGCAAACCGGACGGTTATCCTGGTTAGATGTCTGATGGTTGCTGGAACGTGGTGGCTACTGCTGCCACCTTCTGGCTTCCTTTAATGGGCATCTAGCTGGGTTCTTTGCCACAATCCATCTTACTCTCTTACCCATTTTCTATTACCCAGACTTGTTGTTAACTGGTAAAGTTGACCTACTGGCTTCGTTTTGAGACTATTCTGGTGTTGGTGGACACTCTTTCCACAAGTAGATTGTATGGAGTTCATGCTCGTTTTGAACCGGGAATGGCACAACCCGTAGTAGGATCTTGCCTCTGCCATACTAATCTGCGCCTGTTGCTTTTAGACTATGGGCTGCTAAGGATGACATTGGAACCCCTTTTTGGATATTCCATGTCAAGTCAACTGTTTCATCTGGTGTACGCTGGAAATCCTTGTTCCGAGGTCTTGTCTGGAGGTGGTGCTGAAATATTGCAAGCCACAGGCAGTTCCTTGGACTTGGTGCCGCTATCAGATGCTACACCCTCTATGGGCAAATGTTGAACCTTAGTGGACGCGTGAGATGGGAATCCACGCCGGCCATAGACTGGCTGATAAGCTCGCGGCTGATCGAGTTGCAACAGTAATCAGTTGATTTGCCACT
B6: Kunsagivirus 1 (nucleic acid, listed as Kunsagivirus sp.)
DNA: TTTCAAATCGGACTCCGGTAGTTATACCGGAGCCCGGTTTGGACGCTTGGGCCGCGTTAACAGCCCCCCACCCCTTTCCCACTGACTGATTTCTCGGATTGGACTCATTTGCATTGCTAACTCTGATTCTGGATTTCCCCGTTTATGTCGTCGCGGTCGGAAGTGCACGTACTTCGACGTTGATCTGATGGCGTTTGTTTCCAGGGGGGAGGTGGCGGCAGAAACGCCCCCGCCGTAAACTTCGGCGGGCCACGCCTGTCAAGCCACTCCCTGGGGCCGAGCGCCTGAGGTGATACAGAGAGATAAGCACACTGGGCGCTGACAACGCCCGGGACCTCAGTGAGAAGAGCAGTAGGGCCGTGTTTATGGGACTCCATTGGATATCCCCCGCTTGTCGGAACTCACGGCTACTCCGGGTTGGGAAGCCCGCGACTGGTACTGTACTGGGTGATAGCCTGGTGCCTTCCCTCTCACTGTTGTATGAAGGCTGAAAACCCCCT
B7: Lesavirus 2 (nucleic acid)
DNA: TCTTTCTTTATTTTCTTATGTAACTCTTCTTTTTAAGTTTTATTTTGCCTACTTGTGAGCTTATGCGGGACCACTGTCTTAGACAACCCCACATTTGTCATGAGTAAGTACACGCAACCATTACGATTACTTTTTAACCGTCTGACCTTTTGATAACAACTGAAGTTAGGCGTGAAACATGCATTTATACCAAAGTAGCCCCGCATTTCCCCACTACGGTGGGGGGGCTACCCTACTGGCTTTGGAACTGTAGCCATTATGTGTTGCCTGGCTTTCAGGATCTCACAACACAACAGTTCTCTCACAATGGAATATGGGTGAGATTGCAGTGACATGAACAAGTATCTAGTAGTACATAGACTCAAGCCTAGTTGCCTGCGGAACAACATGTGGTAACACATGCCCCAGGGTCCAAAAGACAAGGGTTAACAGCCCCTTCTAGGTGTCTGTGTGTGAAGAATACTTTAGTAGTGTTGTTATGATCTCACCTGTTAGTACAGAATGAGTATGGCTTGGTGAAGGATGTCCTACAGGTACCCATTATATGGATCTGAGTAGGAGACCACTAGTGGTGGCTTTACCGCCAGGTGAGTGGTTTAAAAAGCGTCTAGCCAAGCCAACAGCACTAGGGATAGTGCTTTCTATATTTTATATTTTCAGTGTATATGGTGACAA
B8: Lesavirus 1 (nucleic acid)
DNA: GTAACTAATAAGCAAGTTTTACTGCCTGCAAACTGCTTCAATGGGACCACCGCTTCGGCGACCCCTTTGTTGAGTTTGTATGTTTTTAAGTAATCTTTGCAACCATACGATTATTTTAGCCGCCTCTCTATAATGATCTTGTTATAGTGGGACGTGAAACATTGGTTTTTCTCACACACGTCCGGTCACCCGGGCGTGTGTTCTTCCGTAAGTCCTATCCACATACCATCGTGGGTAGGCCAGCATGTTTGCACAGGCTGTGACAGTGTGGGTGGGCTTTCCACCTCTCAACAACACACTGAATTGCAATGCACTCACGGAGGAAATGACAATTTGGTTATAGTTTTGAACTGTGCTAGTAATTTCTTTCACATTAAGCCATGTTGCCTGCGGAATCACATGTGGTAACACATGCCTCAGGGCCCAAAAGGCACGGGTTAGCAGCCCCTTCATGGTGTGTTAGAAGTGAAAACACATAGTATGAGCTATAATATCTTTGTTGTCTTCTCTGTAGTGTACCCCGCCAAATGTAAGGATGCCCAGCAGGTACCCATTTTATGGATCTGAGCTGGGGATTGATAGTGTATCTATAAATGCACTGATCAATTTAAAAAGCGTCTAAGTTTGGCACAAACACTGGGGACAGTGTTTTTCCTTTATTCTTTTATTTGATTA
B9: Mouse Mosavirus (nucleic acid, listed as Mosavirus sp.)
DNA: GAAGTTGATCATGAACTTGGTTATTGGTGGAACGCACATGAACTCCCAACAATGATCTTGAAGACACAGCGTGGTAACAATTACCATGCCCTTGTGGCTGCCCAAGACATTGATGGCTATTGGGTGATTTATGATGAC
B10: Kagoshima-2-24-KoV (nucleic acid, listed as Kobuvirus sp.)
DNA: TATAGTTTGCCTGTTTCTCGCACCGTTACCGCTCGTTCGGGAATGTGAAACTGGCACCCCTCCTCTCCCCTACCACCCTTTCTCCTTCGCCCCCATTCATAATTTACAACGCCGCACACAGCGGCGGCCGCCAAGGGCTAGCCTGGCGGTTATAAAAGGAACCTGGGTCTTTCCCTCTTCAAGCCAAAAGGTAGGTTCCCTGTGTCCCTGAATGCTCGGTGAGGAATGCTGCACCGTAACGCTTTGTGAAGTGTTTGCAAGTTCTGGCCCGGCAAGCCTACAGAGTGCTGTGATCCGCTGCGGACGCCATCCTGGTAACAGGACCCCCAGTGTGCGCAACAGTATGTTCAGACTTCGGTTTGTTCACTTGCTTTCATGGACCATTGCGCGAAAGTGCGTGCGCCATATCCCTGTACTTCAGGTGTGCTTCTCTGGACCCTAGGAATGCTGCGAAGGTACCCCGTTTCGGCGGGATCTGATCGCAGGCTAATTGTCTATGGGTTCAGTTTCCTTTTTCTTTACTCCACAATTGACTGCTTAACTGACTCTGGATCTTGTGCTTCCACTGCTCTTTCTGCTCTCAAAACGGCTTCACTTACCAACTCTCACCTTTCGACCAACACCATTTACACACTAACTTTTTTCGACTCTTCTGACTCCTGGCTTGGTGAAGAC
B11: Linda virus (nucleic acid)
DNA: GTATAGCAGCAGTAGCTCAAGGCTGCTATACGATTGGACATACCAAATTCCAATTGGTGTTAGGGACCACCTAGGTGAAGGCCGACGACAGGTAGCCATTCCTGTTAGTAGGACGAACCGTTATGGTGGACTGGTTGCTCAGGTGAGCAGGCTGCAATGCGTAAGTGGTGAGTACACCACAGCCGTCAAAGGTGCCACTGGTAAGGATCACCCACTGGCGATGCCTTGTGGACGGGGGCGTGCCCAACGCAATGTTAGCGGTGGCGGGGGCTGCCATCGTGAAAGCTAGGTCTTGATGGACCTTGTTGCCTGTACAGTCTGATAGGATGCCGGCGGATGCCCTGTGACAGCCAGTATAAAGAATATCCGTTGTGATTGCAC

The subject of the data set is HEK293 cells. In kind it is cell-based, human. Particulars: luminescence from secreted Gluc in supernatant 24 hours after transfection of HEK293 cells; circular RNA encoding Gluc with the named IRES (UTR truncated to 675 nt).
As to B1, the Expression was determined as 9.32E+04.
With B2, the Expression is given as 6.05E+06.
Molecule B3 yielded an Expression of 1.47E+05.
As for B4, the Expression worked out at 1.47E+05.
Under B5 stands 1.24E+05.
Under B6 stands 4.15E+05.
Under B7 stands 3.67E+07.
With B8, the Expression came to 6.37E+06.
The same measure for B9: 9.00E+04; for B10: 9.30E+07; for B11: 7.37E+05.

These data come from patent publication US20230226096A1 (Orna Therapeutics, Inc., priority 2020, published 2023).
